According to the RNAGym collection of RNA variant scans (doi:10.7554/elife.80360):

B1: Hairpin Ribozyme (parent)
chain: GUCCUCUUUCACGUGCGCGUGAAAGAGAGAAGUGAACCAGAGAAACACACGUUGUGGUAUAUUACCUGGUA

Variants of: B1
Assay: self-cleavage, relative activity (ratio to wild type); higher = more cleavage; co-transcriptional

Question: With C16U A47G as the variant, how does the self-cleavage read?
Answer: Its self-cleavage is 0.16.

Question: For U9A A22G, which self-cleavage is on record?
Answer: The self-cleavage was 0.605.

Question: With U9A A22C as the variant, how does the self-cleavage read?
Answer: Its self-cleavage is 0.773.

Question: For G19C C66U, which self-cleavage is on record?
Answer: The self-cleavage was 0.528.

Question: Which self-cleavage does the source give for U2A G13C here?
Answer: The self-cleavage was 0.158.

Question: With C6U C16A as the variant, how does the self-cleavage read?
Answer: The self-cleavage was 0.85.

Question: For A28C A45C, which self-cleavage is on record?
Answer: Its self-cleavage is 0.0427.

Question: For U33C A64G, which self-cleavage is on record?
Answer: The self-cleavage was 0.0772.

Question: Which self-cleavage does the source give for G21A C48G here?
Answer: Its self-cleavage is 0.192.

Question: With C18A A31G as the variant, how does the self-cleavage read?
Answer: The self-cleavage was 0.746.

Question: With A35G U52A as the variant, how does the self-cleavage read?
Answer: The self-cleavage was 1.02.

Question: For U2A A43U, which self-cleavage is on record?
Answer: Its self-cleavage is 0.0943.

Question: Which self-cleavage does the source give for G25A C66U here?
Answer: The self-cleavage was 0.239.

Question: For C37U G68C, which self-cleavage is on record?
Answer: Its self-cleavage is 0.139.

Question: For C10U G32U, which self-cleavage is on record?
Answer: The self-cleavage was 0.164.

Question: For A26G G27C, which self-cleavage is on record?
Answer: The self-cleavage was 0.215.

Question: For G29C A41G, which self-cleavage is on record?
Answer: Its self-cleavage is 0.142.

Question: Which self-cleavage does the source give for G57U A71G here?
Answer: The self-cleavage was 0.254.

Question: For C50G U52C, which self-cleavage is on record?
Answer: The self-cleavage was 0.155.

Question: With A64U C66U as the variant, how does the self-cleavage read?
Answer: The self-cleavage was 0.11.

Question: With A24U A43U as the variant, how does the self-cleavage read?
Answer: Its self-cleavage is 0.121.

Question: Which self-cleavage does the source give for C6U G21A here?
Answer: The self-cleavage was 0.572.

Question: For A22G U60A, which self-cleavage is on record?
Answer: The self-cleavage was 0.949.

Question: With G42A A43G as the variant, how does the self-cleavage read?
Answer: The self-cleavage was 0.0927.

Question: For U7C C37A, which self-cleavage is on record?
Answer: The self-cleavage was 0.37.

Question: With G42U G69A as the variant, how does the self-cleavage read?
Answer: Its self-cleavage is 0.142.

Question: For G56U A71U, which self-cleavage is on record?
Answer: Its self-cleavage is 0.177.

Question: Which self-cleavage does the source give for C50U U52G here?
Answer: The self-cleavage was 0.318.

Question: Which self-cleavage does the source give for G68A G69U here?
Answer: The self-cleavage was 0.172.

Question: Which self-cleavage does the source give for G15U G25C here?
Answer: Its self-cleavage is 0.705.

Question: With A26G C37A as the variant, how does the self-cleavage read?
Answer: The self-cleavage was 0.268.

Question: Which self-cleavage does the source give for A11C C48G here?
Answer: The self-cleavage was 0.0688.

Question: With U2C A11C as the variant, how does the self-cleavage read?
Answer: The self-cleavage was 0.229.

Question: With A35C A44C as the variant, how does the self-cleavage read?
Answer: Its self-cleavage is 0.0528.

Question: Which self-cleavage does the source give for G32C U70G here?
Answer: Its self-cleavage is 0.0915.

Question: With G15C A39G as the variant, how does the self-cleavage read?
Answer: Its self-cleavage is 0.304.

Question: With U60A U70C as the variant, how does the self-cleavage read?
Answer: Its self-cleavage is 0.626.

Question: With G51U U60G as the variant, how does the self-cleavage read?
Answer: Its self-cleavage is 0.659.

Question: For A11G G51C, which self-cleavage is on record?
Answer: Its self-cleavage is 0.784.

Question: Which self-cleavage does the source give for A61G U63C here?
Answer: The self-cleavage was 0.253.

Question: For G13U U70G, which self-cleavage is on record?
Answer: The self-cleavage was 0.78.

Question: For G25C G34U, which self-cleavage is on record?
Answer: The self-cleavage was 1.25.

Question: Which self-cleavage does the source give for G13U C46G here?
Answer: Its self-cleavage is 0.121.

Question: Which self-cleavage does the source give for A11G G25U here?
Answer: The self-cleavage was 0.569.

Question: Which self-cleavage does the source give for A35C U52C here?
Answer: The self-cleavage was 1.05.

Question: Which self-cleavage does the source give for A23G A59U here?
Answer: Its self-cleavage is 0.0772.

Question: Which self-cleavage does the source give for A23G A61C here?
Answer: The self-cleavage was 0.266.

Question: Which self-cleavage does the source give for G27C C38A here?
Answer: Its self-cleavage is 0.116.

Question: With U52A G57U as the variant, how does the self-cleavage read?
Answer: Its self-cleavage is 0.267.

Question: Which self-cleavage does the source give for G19C A47U here?
Answer: Its self-cleavage is 0.152.

Question: Which self-cleavage does the source give for U20A C46G here?
Answer: The self-cleavage was 0.162.

Question: With C10A C38G as the variant, how does the self-cleavage read?
Answer: Its self-cleavage is 0.196.

Question: Which self-cleavage does the source give for A59C C66A here?
Answer: Its self-cleavage is 0.0564.

Question: Which self-cleavage does the source give for A39U C48U here?
Answer: Its self-cleavage is 0.206.

Question: Which self-cleavage does the source give for U53A here?
Answer: The self-cleavage was 1.01.

Question: For C66U G68C, which self-cleavage is on record?
Answer: Its self-cleavage is 0.202.

Question: For C10A G29U, which self-cleavage is on record?
Answer: The self-cleavage was 0.0922.

Question: For U8A A22G, which self-cleavage is on record?
Answer: Its self-cleavage is 0.644.

Question: For A28U U62A, which self-cleavage is on record?
Answer: Its self-cleavage is 0.0878.

Question: With U9A U14C as the variant, how does the self-cleavage read?
Answer: The self-cleavage was 0.62.

Question: Which self-cleavage does the source give for U62A C66G here?
Answer: The self-cleavage was 0.188.

Question: With U9G U60G as the variant, how does the self-cleavage read?
Answer: Its self-cleavage is 0.322.

Question: For G27C A45U, which self-cleavage is on record?
Answer: The self-cleavage was 0.202.

Question: Which self-cleavage does the source give for A39G A64C here?
Answer: The self-cleavage was 0.174.

Question: For A28G A61G, which self-cleavage is on record?
Answer: The self-cleavage was 0.279.

Question: With U52C G68A as the variant, how does the self-cleavage read?
Answer: The self-cleavage was 0.258.

Question: For U58G G68C, which self-cleavage is on record?
Answer: The self-cleavage was 0.178.

Question: With U9A C37G as the variant, how does the self-cleavage read?
Answer: The self-cleavage was 0.189.

Question: Which self-cleavage does the source give for G25A U33C here?
Answer: The self-cleavage was 0.0884.

Question: With C10U U67A as the variant, how does the self-cleavage read?
Answer: Its self-cleavage is 0.137.

Question: Which self-cleavage does the source give for A41U C50A here?
Answer: Its self-cleavage is 0.673.

Question: Which self-cleavage does the source give for U5G C6A here?
Answer: Its self-cleavage is 0.321.

Question: For U14C U58C, which self-cleavage is on record?
Answer: The self-cleavage was 0.78.

Question: With U14A G57A as the variant, how does the self-cleavage read?
Answer: The self-cleavage was 0.139.

Question: With C4A C46G as the variant, how does the self-cleavage read?
Answer: The self-cleavage was 0.165.

Question: For A24C A31U, which self-cleavage is on record?
Answer: The self-cleavage was 0.107.

Question: Which self-cleavage does the source give for A26G A41G here?
Answer: The self-cleavage was 1.13.

Question: Which self-cleavage does the source give for C6U U55C here?
Answer: The self-cleavage was 0.183.

Question: For A47C G56A, which self-cleavage is on record?
Answer: The self-cleavage was 0.233.

Question: With U8A A30C as the variant, how does the self-cleavage read?
Answer: Its self-cleavage is 0.172.

Question: With G15C U63C as the variant, how does the self-cleavage read?
Answer: The self-cleavage was 0.13.

Question: For A28G G51C, which self-cleavage is on record?
Answer: Its self-cleavage is 1.08.

Question: Which self-cleavage does the source give for G40A G57C here?
Answer: The self-cleavage was 0.0825.
